# Changes are numbered by the printed parent chain. In names and notes the source's numbering stands.
# T1: recombinant human ENPP1 extracellular domain fused with a His6-FLAG tag (human)
# T1 construct: Expressed in Expi293 cells and purified on nickel resin; It was coated at 50 ng/well in the ELISAs and captured in biotinylated form on streptavidin biosensors in BLItz; also called ENPP1-His; rhENPP1
# T1 sequence (P22413 98-925, looked up): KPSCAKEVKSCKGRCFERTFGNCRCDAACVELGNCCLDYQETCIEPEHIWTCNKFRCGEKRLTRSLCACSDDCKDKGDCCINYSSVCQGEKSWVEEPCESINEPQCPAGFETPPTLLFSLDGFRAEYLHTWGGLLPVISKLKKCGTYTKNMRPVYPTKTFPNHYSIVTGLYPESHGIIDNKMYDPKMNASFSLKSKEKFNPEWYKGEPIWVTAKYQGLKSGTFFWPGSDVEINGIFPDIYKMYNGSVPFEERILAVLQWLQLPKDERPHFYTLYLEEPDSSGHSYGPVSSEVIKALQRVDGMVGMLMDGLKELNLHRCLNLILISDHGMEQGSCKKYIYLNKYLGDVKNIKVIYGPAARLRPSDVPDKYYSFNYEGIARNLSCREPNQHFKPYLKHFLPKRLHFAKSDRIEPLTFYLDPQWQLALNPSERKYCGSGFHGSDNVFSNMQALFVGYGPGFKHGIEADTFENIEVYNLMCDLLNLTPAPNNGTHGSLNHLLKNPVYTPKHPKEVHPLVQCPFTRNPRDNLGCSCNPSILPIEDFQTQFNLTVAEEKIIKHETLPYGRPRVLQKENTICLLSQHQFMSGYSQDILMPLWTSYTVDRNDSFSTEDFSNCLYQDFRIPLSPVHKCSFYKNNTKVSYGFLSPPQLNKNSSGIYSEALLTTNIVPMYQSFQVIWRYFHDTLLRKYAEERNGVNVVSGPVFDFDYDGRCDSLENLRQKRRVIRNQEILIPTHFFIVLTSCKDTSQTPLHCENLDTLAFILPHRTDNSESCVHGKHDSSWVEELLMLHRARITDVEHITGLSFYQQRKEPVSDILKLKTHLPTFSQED
# B1: Fab 17 (Fab, V domains shown)
# VH: QVQLVESGGGLVKPGGSLRLSCAASGFTFSDYYMSWIRQAPGKGLEWVSYISSSGSTIYYADSVKGRFTISRDNAKNSLYLQMNSLRAEDTAVYYCAREVYYYDSSGYYTYYFDYWGQGTLVTVSS
# VL: DIQMTQSPSSLSASVGDRVTITCRASQSISSYLNWYQQKPGKAPKLLIYAASSLQSGVPSRFSGSGSGTDFTLTISSLQPEDAATYYCQQYDTFPLTFGGGTKVEIKR
# notes: Human Fab from a phage library, expressed in E. coli and purified on Ni-NTA; also called 17-Fab; Clone #1 (Fab)
# B2: IgG1 17 (antibody, V domains shown)
# VH: B1 VH
# VL: B1 VL
# notes: also called hIgG1 17; IgG 17
# B3: Fab 3G12 (Fab, V domains shown)
# VH: B1 VH
# VL: B1 VL with A83V, T85V, D92Y, F94S, P95R, L96I, G100Q, V104L
# notes: Same heavy chain as Fab 17, different light chain; Expressed in E. coli and purified on Ni-NTA; also called 3G12-Fab; Clone #2 (Fab)
# B4: IgG1 3G12 (antibody, V domains shown)
# VH: B1 VH
# VL: B1 VL with A83V, T85V, D92Y, F94S, P95R, L96I, G100Q, V104L
# notes: Bivalent human IgG1 converted from Fab 3G12, expressed in Expi293 cells and purified on Protein A; also called hIgG1 3G12
# B5: scFv 17 (scFv)
# scFv: DIQMTQSPSSLSASVGDRVTITCRASQSISSYLNWYQQKPGKAPKLLIYAASSLQSGVPSRFSGSGSGTDFTLTISSLQPEDAATYYCQQYDTFPLTFGGGTKVEIKGGGGSGGGGSGGGGSQVQLVESGGGLVKPGGSLRLSCAASGFTFSDYYMSWIRQAPGKGLEWVSYISSSGSTIYYADSVKGRFTISRDNAKNSLYLQMNSLRAEDTAVYYCAREVYYYDSSGYYTYYFDYWGQGTLVTVSS
# notes: VL-(G4S)3-VH orientation; Expressed in E. coli; also called scFv format antibody 17; not shown: C-terminal FLAG tag used for detection; The protein was purified on Ni-NTA
# B6: scFv 3G12 (scFv)
# scFv: B5 scFv with A83V, T85V, D92Y, F94S, P95R, L96I, G100Q, V104L
# notes: VL-(G4S)3-VH orientation; Expressed in E. coli; also called scFv format antibody 3G12; not shown: C-terminal FLAG tag used for detection; The protein was purified on Ni-NTA
# Tests used:
# BSA = molecular target: T2, BSA (UniProt P02769 25-607); assay: ELISA on BSA
# T2 construct: Specificity control antigen in ELISA
# [1] = molecular target: T1, recombinant human ENPP1 extracellular …; assay: BLItz biolayer interferometry, biotinylated ENPP1 on a streptavidin biosensor
# Description: (§1) The affinity and avidity of the anti-hENPP1 antibody were detected by biolayer interferometry BLItz (ForteBio, Menlo Park, CA, USA). Briefly, DPBS was used to establish a baseline for 30 seconds, and streptavidin biosensor (ForteBio) was coated with 16.7 μg/mL recombinant ENPP1-Biotin for 2 minutes. […] Antigen-coated biosensors with PBS served as a reference control. The dissociation was monitored in DPBS for 4 minutes.
# [2] = molecular target: T1, recombinant human ENPP1 extracellular …; assay: ELISA, ENPP1-His coated at 50 ng/well, anti-FLAG-HRP detection
# Description: (§2) The binding and specificity of Fab, scFv, and IgG1 to ENPP1 were analyzed by ELISA. Briefly, ENPP1-His protein was coated at 50 ng/well at 4° C. overnight and blocked with 5% milk for 2 hours at room temperature. After three times washing with PBST, they were incubated with 3-fold serially diluted Fab, scFv, or IgG1 for 1 hour at 37° C. For Fab and scFv detection via the FLAG tag present at the C-terminus, further incubation was performed with anti-FLAG M2-peroxidase (HRP) antibody (A8592, Sigma-Aldrich, St. Louis, MO, USA) for another 1 hour. For the IgG1, HRP-conjugated goat anti-human IgG1 Fc (Sigma-Aldrich, St. Louis, MO, USA) was used for detection.
# [3] = molecular target: T1, recombinant human ENPP1 extracellular …; assay: BLItz biolayer interferometry, biotinylated ENPP1 on streptavidin biosensor
# Description: as §1
# [4] = molecular target: T1, recombinant human ENPP1 extracellular …; assay: BLItz biolayer interferometry, biotinylated ENPP1 on streptavidin biosensor (avidity, bivalent IgG1)
# Description: as §1
# [5] = molecular target: T1, recombinant human ENPP1 extracellular …; assay: ELISA, ENPP1-His coated at 50 ng/well, anti-human IgG1 Fc-HRP detection
# Description: as §2
# T2 sequence (P02769 25-607 limits assumed): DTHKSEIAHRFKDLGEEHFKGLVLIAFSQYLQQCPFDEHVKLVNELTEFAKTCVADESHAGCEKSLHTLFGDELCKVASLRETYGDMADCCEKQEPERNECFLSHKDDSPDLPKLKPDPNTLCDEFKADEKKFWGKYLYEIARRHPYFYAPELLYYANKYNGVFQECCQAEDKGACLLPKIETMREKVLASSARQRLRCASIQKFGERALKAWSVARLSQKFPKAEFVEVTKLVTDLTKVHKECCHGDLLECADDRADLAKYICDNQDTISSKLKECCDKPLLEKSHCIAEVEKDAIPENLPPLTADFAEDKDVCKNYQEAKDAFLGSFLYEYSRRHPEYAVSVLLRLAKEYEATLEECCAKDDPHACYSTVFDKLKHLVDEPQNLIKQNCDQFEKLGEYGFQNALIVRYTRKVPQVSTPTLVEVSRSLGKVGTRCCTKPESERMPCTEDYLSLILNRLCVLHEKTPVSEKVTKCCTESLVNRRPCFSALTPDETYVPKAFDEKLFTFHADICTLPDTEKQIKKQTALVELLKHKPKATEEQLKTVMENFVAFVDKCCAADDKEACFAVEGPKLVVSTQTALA
Binder,binding result (BSA),koff [1] [s⁻¹],kon [1] [M⁻¹ s⁻¹],EC50 [2] [nM],Kd [3] [nM],koff [3] [s⁻¹],kon [3] [M⁻¹ s⁻¹],Kd [4] [nM],koff [4] [s⁻¹],kon [4] [M⁻¹ s⁻¹],EC50 [5] [nM]
B1,no binding,0.00441,71800,13.9,61.4,0.0044,72000,,,,
B2,,,,,,,,6.7,0.0042,630000,0.14
B3,no binding,0.00184,51900,2.6,35.5,0.0018,52000,,,,
B4,,,516000,,,,,4.2,0.0021,520000,0.24
B5,,,,6.4,,,,,,,
B6,,,,52.2,,,,,,,
